For two substances, Kd results are on record in publication PMC5650921.

Assay [1] concerns the target EREG/sEGFR501 complex (human) (UniProt P00533). Nature of the assay: small-angle X-ray scattering.
For assay [2], the target named is sEGFR501 1-501 (Homo sapiens) (UniProt P00533). Conditions: cited from earlier work.

For “EREG/sEGFR501 complex (from UniProt P00533 25-525; O14944 56-116)”, in assay [1], the Kd was above 200 µM.
Take sEGFR501 1-501 (from UniProt P00533): the dissociation constant (Kd) in assay [2] is 3000 nM.
